One block for each binder: values may come before it.
Tests used:
[1] = molecular target: T1, 14-3-3ζ nhpSer58 with a FLAG tag at its N-terminus (Homo sapiens (Human)), P63104; conditions: remark: other sources report otherwise
T1 chain: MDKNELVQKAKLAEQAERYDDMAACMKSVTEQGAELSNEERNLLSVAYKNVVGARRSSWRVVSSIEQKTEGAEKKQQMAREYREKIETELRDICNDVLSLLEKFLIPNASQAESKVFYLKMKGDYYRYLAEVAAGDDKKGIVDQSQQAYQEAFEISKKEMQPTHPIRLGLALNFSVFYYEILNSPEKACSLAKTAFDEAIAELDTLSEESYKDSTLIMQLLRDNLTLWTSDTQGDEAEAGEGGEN

[2] = molecular target: 14-3-3ζ nhpSer58 with a FLAG tag at its N-terminus (Homo sapiens (Human)) (UniProt P63104)

FC [1]: 0.0526 fold
B1: 14-3-3 protein sigma [OS = Homo sapiens], P31947 1-248 (protein, UniProt P31947 1-248, looked up)
chain: MERASLIQKAKLAEQAERYEDMAAFMKGAVEKGEELSCEERNLLSVAYKNVVGGQRAAWRVLSSIEQKSNEEGSEEKGPEVREYREKVETELQGVCDTVLGLLDSHLIKEAGDAESRVFYLKMKGDYYRYLAEVATGDDKKRIIDSARSAYQEAMDISKKEMPPTNPIRLGLALNFSVFHYEIANSPEEAISLAKTTFDEAMADLHTLSEDSYKDSTLIMQLLRDNLTLWTADNAGEEGGEAPQEPQS

FC [2]: 0.194 fold
B3: transformer-2 protein homolog beta [OS = Homo sapiens] (protein, UniProt P62995 2-288, looked up)
chain: SDSGEQNYGERESRSASRSGSAHGSGKSARHTPARSRSKEDSRRSRSKSRSRSESRSRSRRSSRRHYTRSRSRSRSHRRSRSRSYSRDYRRRHSHSHSPMSTRRRHVGNRANPDPNCCLGVFGLSLYTTERDLREVFSKYGPIADVSIVYDQQSRRSRGFAFVYFENVDDAKEAKERANGMELDGRRIRVDFSITKRPHTPTPGIYMGRPTYGSSRRRDYYDRGYDRGYDDRDYYSRSYRGGGGGGGGWRAAQDRDQIYRRRSPSPYYSRGGYRSRSRSRSYSPRRY

FC [1]: 0.0473 fold
B5: 14-3-3 protein theta [OS = Homo sapiens], P27348 1-245 (protein, UniProt P27348 1-245, looked up)
chain: MEKTELIQKAKLAEQAERYDDMATCMKAVTEQGAELSNEERNLLSVAYKNVVGGRRSAWRVISSIEQKTDTSDKKLQLIKDYREKVESELRSICTTVLELLDKYLIANATNPESKVFYLKMKGDYFRYLAEVACGDDRKQTIDNSQGAYQEAFDISKKEMQPTHPIRLGLALNFSVFYYEILNNPELACTLAKTAFDEAIAELDTLNEDSYKDSTLIMQLLRDNLTLWTSDSAGEECDAAEGAEN

FC [2]: 0.202 fold
B8: WD and tetratricopeptide repeats protein 1 [OS = Homo sapiens] (protein, UniProt Q8N5D0 1-677, looked up)
chain: MAKVNITRDLIRRQIKERGALSFERRYHVTDPFIRRLGLEAELQGHSGCVNCLEWNEKGDLLASGSDDQHTIVWDPLHHKKLLSMHTGHTANIFSVKFLPHAGDRILITGAADSKVHVHDLTVKETIHMFGDHTNRVKRIATAPMWPNTFWSAAEDGLIRQYDLRENSKHSEVLIDLTEYCGQLVEAKCLTVNPQDNNCLAVGASGPFVRLYDIRMIHNHRKSMKQSPSAGVHTFCDRQKPLPDGAAQYYVAGHLPVKLPDYNNRLRVLVATYVTFSPNGTELLVNMGGEQVYLFDLTYKQRPYTFLLPRKCHSSGEVQNGKMSTNGVSNGVSNGLHLHSNGFRLPESRGHVSPQVELPPYLERVKQQANEAFACQQWTQAIQLYSKAVQRAPHNAMLYGNRAAAYMKRKWDGDHYDALRDCLKAISLNPCHLKAHFRLARCLFELKYVAEALECLDDFKGKFPEQAHSSACDALGRDITAALFSKNDGEEKKGPGGGAPVRLRSTSRKDSISEDEMVLRERSYDYQFRYCGHCNTTTDIKEANFFGSNAQYIVSGSDDGSFFIWEKETTNLVRVLQGDESIVNCLQPHPSYCFLATSGIDPVVRLWNPRPESEDLTGRVVEDMEGASQANQRRMNADPLEVMLLNMGYRITGLSSGGAGASDDEDSSEGQVQCRPS

Continued, binder first:

B2: Serine/arginine-rich splicing factor 10 [OS = Homo sapiens], O75494 1-262 (protein, UniProt O75494 1-262, looked up)
chain: MSRYLRPPNTSLFVRNVADDTRSEDLRREFGRYGPIVDVYVPLDFYTRRPRGFAYVQFEDVRDAEDALHNLDRKWICGRQIEIQFAQGDRKTPNQMKAKEGRNVYSSSRYDDYDRYRRSRSRSYERRRSRSRSFDYNYRRSYSPRNSRPTGRPRRSRSHSDNDRFKHRNRSFSRSKSNSRSRSKSQPKKEMKAKSRSRSASHTKTRGTSKTDSKTHYKSGSRYEKESRKKEPPRSKSQSRSQSRSRSKSRSRSWTSPKSSGH
FC [1]: 0.0496 fold

B4: Histone deacetylase complex subunit SAP18 [OS = Homo sapiens] (protein, UniProt O00422 2-153, looked up)
chain: AVESRVTQEEIKKEPEKPIDREKTCPLLLRVFTTNNGRHHRMDEFSRGNVPSSELQIYTWMDATLKELTSLVKEVYPEARKKGTHFNFAIVFTDVKRPGYRVKEIGSTMSGRKGTDDSMTLQSQKFQIGDYLDIAITPPNRAPPPSGRMRPY
FC [2]: 0.187 fold

B6: GTPase-activating protein and VPS9 domain-containing protein 1 [OS = Homo sapiens] (protein, UniProt Q14C86 1-1478, looked up)
chain: MVKLDIHTLAHHLKQERLYVNSEKQLIQRLNADVLKTAEKLYRTAWIAKQQRINLDRLIITSAEASPAECCQHAKILEDTQFVDGYKQLGFQETAYGEFLSRLRENPRLIASSLVAGEKLNQENTQSVIYTVFTSLYGNCIMQEDESYLLQVLRYLIEFELKESDNPRRLLRRGTCAFSILFKLFSEGLFSAKLFLTATLHEPIMQLLVEDEDHLETDPNKLIERFSPSQQEKLFGEKGSDRFRQKVQEMVESNEAKLVALVNKFIGYLKQNTYCFPHSLRWIVSQMYKTLSCVDRLEVGEVRAMCTDLLLACFICPAVVNPEQYGIISDAPINEVARFNLMQVGRLLQQLAMTGSEEGDPRTKSSLGKFDKSCVAAFLDVVIGGRAVETPPLSSVNLLEGLSRTVVYITYSQLITLVNFMKSVMSGDQLREDRMALDNLLANLPPAKPGKSSSLEMTPYNTPQLSPATTPANKKNRLPIATRSRSRTNMLMDLHMDHEGSSQETIQEVQPEEVLVISLGTGPQLTPGMMSENEVLNMQLSDGGQGDVPVDENKLHGKPDKTLRFSLCSDNLEGISEGPSNRSNSVSSLDLEGESVSELGAGPSGSNGVEALQLLEHEQATTQDNLDDKLRKFEIRDMMGLTDDRDISETVSETWSTDVLGSDFDPNIDEDRLQEIAGAAAENMLGSLLCLPGSGSVLLDPCTGSTISETTSEAWSVEVLPSDSEAPDLKQEERLQELESCSGLGSTSDDTDVREVSSRPSTPGLSVVSGISATSEDIPNKIEDLRSECSSDFGGKDSVTSPDMDEITHGAHQLTSPPSQSESLLAMFDPLSSHEGASAVVRPKVHYARPSHPPPDPPILEGAVGGNEARLPNFGSHVLTPAEMEAFKQRHSYPERLVRSRSSDIVSSVRRPMSDPSWNRRPGNEERELPPAAAIGATSLVAAPHSSSSSPSKDSSRGETEERKDSDDEKSDRNRPWWRKRFVSAMPKAPIPFRKKEKQEKDKDDLGPDRFSTLTDDPSPRLSAQAQVAEDILDKYRNAIKRTSPSDGAMANYESTGDNHDRDLSSKLLYHSDKEVMGDGESAHDSPRDEALQNISADDLPDSASQAAHPQDSAFSYRDAKKKLRLALCSADSVAFPVLTHSTRNGLPDHTDPEDNEIVCFLKVQIAEAINLQDKNLMAQLQETMRCVCRFDNRTCRKLLASIAEDYRKRAPYIAYLTRCRQGLQTTQAHLERLLQRVLRDKEVANRYFTTVCVRLLLESKEKKIREFIQDFQKLTAADDKTAQVEDFLQFLYGAMAQDVIWQNASEEQLQDAQLAIERSVMNRIFKLAFYPNQDGDILRDQVLHEHIQRLSKVVTANHRALQIPEVYLREAPWPSAQSEIRTISAYKTPRDKVQCILRMCSTIMNLLSLANEDSVPGADDFVPVLVFVLIKANPPCLLSTVQYISSFYASCLSGEESYWWMQFTAAVEFIKTIDDRK
FC [2]: 0.177 fold

B7: serrate RNA effector molecule homolog [OS = Homo sapiens] (protein, UniProt Q9BXP5 2-876, looked up)
chain: GDSDDEYDRRRRDKFRRERSDYDRSRERDERRRGDDWNDREWDRGRERRSRGEYRDYDRNRRERFSPPRHELSPPQKRMRRDWDEHSSDPYHSGYEMPYAGGGGGPTYGPPQPWGHPDVHIMQHHVLPIQARLGSIAEIDLGVPPPVMKTFKEFLLSLDDSVDETEAVKRYNDYKLDFRRQQMQDFFLAHKDEEWFRSKYHPDEVGKRRQEARGALQNRLRVFLSLMETGWFDNLLLDIDKADAIVKMLDAAVIKMEGGTENDLRILEQEEEEEQAGKPGEPSKKEEGRAGAGLGDGERKTNDKDEKKEDGKQAENDSSNDDKTKKSEGDGDKEEKKEDSEKEAKKSSKKRNRKHSGDDSFDEGSVSESESESESGQAEEEKEEAEEALKEKEKPKEEEWEKPKDAAGLECKPRPLHKTCSLFMRNIAPNISRAEIISLCKRYPGFMRVALSEPQPERRFFRRGWVTFDRSVNIKEICWNLQNIRLRECELSPGVNRDLTRRVRNINGITQHKQIVRNDIKLAAKLIHTLDDRTQLWASEPGTPPLPTSLPSQNPILKNITDYLIEEVSAEEEELLGSSGGAPPEEPPKEGNPAEINVERDEKLIKVLDKLLLYLRIVHSLDYYNTCEYPNEDEMPNRCGIIHVRGPMPPNRISHGEVLEWQKTFEEKLTPLLSVRESLSEEEAQKMGRKDPEQEVEKFVTSNTQELGKDKWLCPLSGKKFKGPEFVRKHIFNKHAEKIEEVKKEVAFFNNFLTDAKRPALPEIKPAQPPGPAQILPPGLTPGLPYPHQTPQGLMPYGQPRPPILGYGAGAVRPAVPTGGPPYPHAPYGAGRGNYDAFRGQGGYPGKPRNRMVRGDPRAIVEYRDLDAPDDVDFF
FC [2]: 0.12 fold

B9: 14-3-3 protein epsilon [OS = Homo sapiens], P62258 1-255 (protein, UniProt P62258 1-255, looked up)
chain: MDDREDLVYQAKLAEQAERYDEMVESMKKVAGMDVELTVEERNLLSVAYKNVIGARRASWRIISSIEQKEENKGGEDKLKMIREYRQMVETELKLICCDILDVLDKHLIPAANTGESKVFYYKMKGDYHRYLAEFATGNDRKEAAENSLVAYKAASDIAMTELPPTHPIRLGLALNFSVFYYEILNSPDRACRLAKAAFDDAIAELDTLSEESYKDSTLIMQLLRDNLTLWTSDMQGDGEEQNKEALQDVEDENQ
FC [1]: 0.0482 fold
